Target: Cy3-labeled human histone nucleosome core particle reconstituted on the Widom 601 sequence (human) (UniProt P62807)
Assay: single-molecule fluorescence imaging on optical tweezers

- lifetime: 24 s
Substance: HaloTag-635-LIG3α (wild type, nuclear DNA ligase IIIα) (enzyme)

— article PMC12748704
